Test [1] addresses T1, soluble CA125 in OVCAR-3 supernatant (human, UniProt Q8WXI7 1-14439, limits assumed, heavily glycosylated with O-linked and N-linked oligosaccharides).
T1 construct: Not purified: used as OVCAR-3 culture supernatant, detected with the anti-CA125 mAb OC125; also called MUC16; OVCAR-3 supernatant containing CA125
Description: Western blot overlay with OVCAR-3 supernatant, OC125 detection. How it is done: FIGS. 4A-B. Western blots of mesothelin fragments and alanine mutants. Each protein (500 ng) was run on an SDS-PAGE gel and transferred to a PVDF membrane. Membrane was blotted with OVCAR-3 supernatant containing CA125 followed by OC125 (anti-CA125 mAb).
Western blots—Purified Fc mesothelin fragments (500 ng) were mixed with Laemmli Sample Buffer (Biorad) supplemented with 5% B-Mercaptoethanol. Samples were boiled for 2 min and separated on 4-20% SDS-PAGE gels (Invitrogen). After transfer for 4 h at 30V, the PVDF membrane was blocked overnight at 4° C. in 1% Western Blocking Reagent (Roche) in Tris buffered saline (50 mM Tris-HCl, 150 mM NaCl). The membrane was then incubated with OVCAR-3 supernatant+0.5% blocking solution for 1 h at RT. This was followed by incubation with 1:200 dilution of OC125 mAb for 1 h at RT. Detection was performed with goat anti-mouse IgG-HRP conjugate (Biosource) 1:1000 for 1 h.
Background: Immunoblotting shows a protein as a band on a membrane.

Test [2] addresses T2, CA125 on the cell surface of OVCAR-3 or YOU cells (human, UniProt Q8WXI7 1-14507, heavily glycosylated with O-linked and N-linked oligosaccharides).
T2 construct: whole, on cells; also called MUC16; human CA125
As to the kind of experiment: flow cytometry on YOU cells, FULL set to 100%. The procedure:
FIGS. 7A-B. Binding of truncated mutants and alanine mutants to CA125 on the cell surface of YOU cells. A. YOU mesothelioma cells were incubated with full-length extracellular domain of mesothelin (FULL) or a mutant of mesothelin. The binding was visualized with a goat anti-rabbit IgG PE-conjugated secondary antibody by flow cytometry (gray line). Light gray shaded plot: secondary antibody only. B. A mean fluorescence intensity (geometrical mean) was used to quantitatively measure the CA125 binding on YOU cells. In each experiment, the binding of the full-length mesothelin (FULL) to CA125 was determined as 100% of binding. The secondary antibody only was used as a negative (0%) control.
(§1) Flow cytometry—To determine binding of mesothelin fragments to CA125 on the cell surface, OVCAR-3 or YOU cells were grown until confluent, detached, and then incubated with 1 μg/mL of mesothelin or its fragments in FACS buffer (5% BSA, 0.01% NaN₃) for 1 h on ice. Bound fragments were detected by incubating with a 1:200 dilution of Goat anti-Rabbit IgG-PE (Biosource) secondary antibody in FACS buffer for 0.5 h on ice. Cells were analyzed using FACSCalibur (BD Biosciences). Each binding experiment was repeated three to five times.
(A flow cytometer gives signals particle by particle.)

Test [3] concerns the target T1, soluble CA125 in OVCAR-3 supernatant. Description: sandwich ELISA; average KD told of three proteins. How it is done:
(§2) Scatchard plots (top left corner) were made. ELISA plates captured the Fc mesothelin mutant fusion proteins at various concentrations (x axis; see Experimental Procedures). OVCAR-3 supernatant containing soluble CA125 was then added, followed by the OC125 mAb and a goat anti-mouse IgG HRP.
(§3) Sandwich ELISA—Nunc MaxiSorp 96 well flat-bottomed plates were incubated overnight with 5 μg/mL, goat anti-rabbit IgG (Jackson ImmunoResearch Laboratories) in PBS, followed by an overnight block with 5% BSA, 0.01% NaN₃ in PBS. Purified Fc mesothelin fragments were diluted to 1 μg/mL in ELISA buffer (0.01% Tween 20, 10% Pierce SuperBlock) and incubated on plate for 1 h at room temperature (RT). Plates were then incubated with OVCAR-3 supernatant containing CA125 for 1 h at RT. To detect bound CA125 a 1:200 dilution of anti-CA125 OC125 mAb (Zymed) was incubated for an additional hour at RT; subsequently a 1:1500 dilution of goat anti-mouse IgG HRP conjugate (Biosource) was added for 1 h at RT. The plates were washed four times with ELISA buffer between each coating.
Kinetic studies by ELISA—To precisely characterize the interaction between CA125 and mesothelin and to determine a binding affinity (KD) for each mesothelin fragment, we used a quantitative ELISA-based assay. ELISA plates were coated with a goat anti-rabbit IgG antibody overnight for capturing the Fc mesothelin mutant fusion proteins. […]

Test [4] has the same target. As to the kind of experiment: sandwich ELISA, captured rFc fusion, OVCAR-3 supernatant, OC125 detection. The procedure:
as §3
(§4) Kinetic studies by ELISA—To precisely characterize the interaction between CA125 and mesothelin and to determine a binding affinity (KD) for each mesothelin fragment, we used a quantitative ELISA-based assay. ELISA plates were coated with a goat anti-rabbit IgG antibody overnight for capturing the Fc mesothelin mutant fusion proteins. OVCAR-3 supernatant containing soluble CA125 was then added, followed by the OC125 mAb. Overall results from the ELISA were consistent with those seen in the Western blot overlay assays except for the E324A mutant of mesothelin (FIG. 5).

The target in test [5] is T2, CA125 on the cell surface of OVCAR-3 or …. Description: flow cytometry on OVCAR-3 cells, FULL set to 100%. How it is done: FIGS. 6A-B. Binding of truncated mutants and alanine mutants to CA125 on the cell surface of OVCAR-3 cells. A. OVCAR-3 ovarian cancer cells were incubated with full-length extracellular domain of mesothelin (FULL), Region I, IAB or IBC. The binding was visualized with a goat anti-rabbit IgG PE-conjugated secondary antibody by flow cytometry (gray line). Light gray shaded plot: secondary antibody only. B. A fluorescence intensity (geometrical mean) was used to quantitatively measure the CA125 binding. In each experiment, the binding of the full-length mature form of mesothelin (FULL) to CA125 was determined as 100% of binding. The secondary antibody only was used as a negative (0%) control.
as §1
Cell binding assays by flow cytometry—To assess binding to CA125 on cancer cells, wild-type mesothelin and its mutants were incubated with cells. […]

For test [6], the target named is soluble CA125 in OVCAR-3 supernatant (human) (UniProt Q8WXI7). Description: sandwich ELISA; average KD told of three proteins. For orientation: In an ELISA, binding on a coated surface is turned into a signal by an enzyme label.
Test [7] has as its target CA125 on the cell surface of OVCAR-3 or YOU cells (human) (UniProt Q8WXI7). As to the kind of experiment: cell-based or functional assay.
The target of test [8] is soluble CA125 in OVCAR-3 supernatant (human) (UniProt Q8WXI7). Description: sandwich ELISA, captured rFc fusion at various concentrations, OVCAR-3 supernatant, OC125 detection; nonlinear regression/Scatchard.
For test [9], the target named is T1, soluble CA125 in OVCAR-3 supernatant. Described as above. The procedure: as §2, §3, §4

Changes are numbered by the printed parent chain. Names may count otherwise. Ends that are not written are not given here.

B1: mesothelin Region IA (296-337) rabbit IgG Fc fusion protein, rFc at the C-terminus (Fc fusion)
chain: EVEKTACPSGKKAREIDESLIFYKKWELEACVDAALLATQMD
notes: not shown: junction between fragment and rFc, and any tags, not described for this construct; rabbit IgG Fc (rFc)
Take B1: in test [1], the binding result is “no binding (tested: 500 ng)”.

B2: mesothelin Region I (296-390) rabbit IgG Fc fusion protein (Fc fusion, not shown: a dimerising Fc or GST; small tags and cut ends)
chain: EVEKTACPSGKKAREIDESLIFYKKWELEACVDAALLATQMDRVNAIPFTYEQLDVLKHKLDELYPQGYPESVIQHLGYLFLKMSPEDIRKWNVT
As for B2, in test [2], the “CA125 binding activity relative to FULL” value is ~40%. The Kd in test [3] is ~3 nM.

B3: mesothelin Region IB (328-369) rabbit IgG Fc fusion protein (Fc fusion, not shown: a dimerising Fc or GST; small tags and cut ends)
chain: DAALLATQMDRVNAIPFTYEQLDVLKHKLDELYPQGYPESVI
modifications: also: fusion with rabbit IgG Fc, thrombin site with flexible linker, myc epitope (no letters given)
On to B3, for which the “binding activity relative to FULL” value in [2] was ~10%. Also, the binding result in test [4] was “no binding”. Further, the “CA125-binding activity relative to FULL” value in [5] is ~10%.

B4: rabbit IgG Fc fusion of the full-length extracellular domain of mesothelin (296-581) (Fc fusion, part only; not given: rabbit Fc, linker, myc tag, not shown: a dimerising Fc or GST; small tags and cut ends)
chain (part 1 of 2), part: EVEKTACPSGKKAREIDESLIFYKKWELEACVDAALLATQMDRVNAIPFTYEQLDVLKHKLDELYPQGYPESVIQHLGYLFLKMSPEDIRKWNVTSLETLKALLEVNKGHEMSPQAPRRPLPQVATLIDRFVKGRGQLDKDTLDTLTAFYPGYLCSLSPEELSSVPPSSIWAVRPQDLDTCDPRQLDVLYPKARLAFQNMNGSEYFVKIQSFLGGAPTEDLKALSQQNVSMDLATFMKLRTDAVLPLTVAEVQKLLGPHVEGLKAEERHRPVRDWILRQRQDDLDT
chain (part 2 of 2), part: HHHHHH
B4 registered a Kd in [6] of 3 nM. In test [7], this molecule gave an adhesion of fluorescently labeled mesothelin-expressing H9 cells onto a YOU monolayer of 1 µg/mL and an adhesion of fluorescently labeled mesothelin-expressing H9 cells onto an OVCAR3 monolayer of 10 µg/mL. The molecule further displayed a Kd in test [8] of 1.54 nM.

B5: mesothelin Region IC (360-405) rabbit IgG Fc fusion protein (Fc fusion, not shown: a dimerising Fc or GST; small tags and cut ends)
chain: YPQGYPESVIQHLGYLFLKMSPEDIRKWNVTSLETLKALLEVNKGH
modifications: also: fusion with rabbit IgG Fc, thrombin site with flexible linker, myc epitope (no letters given)
B5: the binding result in test [4] is reported as “no binding”.

B6: mesothelin Region IAB (296-359) rabbit IgG Fc fusion protein (Fc fusion, not shown: a dimerising Fc or GST; small tags and cut ends)
chain: EVEKTACPSGKKAREIDESLIFYKKWELEACVDAALLATQMDRVNAIPFTYEQLDVLKHKLDEL
notes: also called Region IAB wild-type (wt)
On to B6, for which the Kd in test [3] is ~3 nM; in test [9], 3.35 nM. In [5], the “binding activity relative to FULL” value is ~90%.

B7: Y318A alanine mutant of mesothelin Region IAB (296-359), rabbit IgG Fc fusion protein (Fc fusion, not shown: a dimerising Fc or GST; small tags and cut ends)
chain: B6 chain with Y23A
notes: Alanine mutant within Region IAB
For the molecule B7, in test [4], the binding result is “no binding”.

B8: E324A alanine mutant of mesothelin Region IAB (296-359), rabbit IgG Fc fusion protein (Fc fusion, not shown: a dimerising Fc or GST; small tags and cut ends)
chain: B6 chain with E29A
notes: as for B7
In [9], B8 yielded a dissociation constant (Kd) of 42.4 nM.

B9: H354A alanine mutant of mesothelin Region IAB (296-359), rabbit IgG Fc fusion protein (Fc fusion, not shown: a dimerising Fc or GST; small tags and cut ends)
chain: B6 chain with H59A
notes: Alanine mutant within Region IAB; also called H354A mutant of IAB
In turn, B9 gave an equilibrium dissociation constant (Kd) in [9] of 2.71 nM.

B10: W321A alanine mutant of mesothelin Region IAB (296-359), rabbit IgG Fc fusion protein (Fc fusion, not shown: a dimerising Fc or GST; small tags and cut ends)
chain: B6 chain with W26A
notes: as for B7
As for B10, the Kd in test [9] was determined as 19.5 nM.

B11: mesothelin Region IBC (328-405) rabbit IgG Fc fusion protein (Fc fusion, not shown: a dimerising Fc or GST; small tags and cut ends)
chain: DAALLATQMDRVNAIPFTYEQLDVLKHKLDELYPQGYPESVIQHLGYLFLKMSPEDIRKWNVTSLETLKALLEVNKGH
As to B11, the binding result in test [1] is listed as “no binding (tested: 500 ng)”.

The term Kd denotes the concentration at which binding is half-saturated. Higher therefore signals weaker binding.

The values above are taken from patent US20110236385A1 (GOVERNMENT OF THE UNITED STATES OF AMERICA AS REPRESENTED …, published 2011).
